The text below walks through data of patent US8697369B2, “Method for screening a test substance for activating a receptor associated with FGF 21 activity” (National Institute of Advanced Industrial Science and …, priority 2007, dated 2014).

Entries after “also recorded” stand apart in the source; their conditions may differ.

The target of assay [1] is T1, FGFR1c/betaKlotho-expressing BaF3 cells (Mus musculus, UniProt P16092+Q99N32).
T1 construct: the entire-length cDNA of mouse FGFR1c had been cloned; the entire-length cDNA of mouse betaKlotho was cloned into an animal cell expression vector; expressed in transfected cells; host or cells: BaF3 (mouse pro-B) cells
T1 sequence (P16092 22-822): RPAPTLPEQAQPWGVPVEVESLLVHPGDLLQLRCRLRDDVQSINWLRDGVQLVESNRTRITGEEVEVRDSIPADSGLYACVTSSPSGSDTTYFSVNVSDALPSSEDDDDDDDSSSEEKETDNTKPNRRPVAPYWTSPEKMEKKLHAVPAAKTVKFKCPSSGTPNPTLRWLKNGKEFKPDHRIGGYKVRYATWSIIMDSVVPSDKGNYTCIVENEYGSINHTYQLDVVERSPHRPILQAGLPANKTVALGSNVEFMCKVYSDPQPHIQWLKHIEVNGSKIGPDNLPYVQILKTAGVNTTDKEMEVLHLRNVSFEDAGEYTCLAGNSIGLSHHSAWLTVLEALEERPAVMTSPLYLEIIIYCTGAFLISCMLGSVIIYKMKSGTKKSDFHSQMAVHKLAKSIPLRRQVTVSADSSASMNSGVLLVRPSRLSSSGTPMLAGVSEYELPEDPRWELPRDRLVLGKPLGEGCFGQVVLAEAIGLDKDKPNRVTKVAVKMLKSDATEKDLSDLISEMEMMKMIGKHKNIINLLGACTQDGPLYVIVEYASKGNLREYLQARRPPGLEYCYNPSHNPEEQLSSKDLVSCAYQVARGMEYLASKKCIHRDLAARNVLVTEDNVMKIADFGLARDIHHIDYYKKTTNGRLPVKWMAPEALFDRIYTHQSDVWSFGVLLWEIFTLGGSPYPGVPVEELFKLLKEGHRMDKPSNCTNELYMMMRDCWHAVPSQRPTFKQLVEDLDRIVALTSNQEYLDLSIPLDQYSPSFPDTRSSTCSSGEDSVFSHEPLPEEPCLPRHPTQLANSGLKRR
T1 sequence (Q99N32 whole entry): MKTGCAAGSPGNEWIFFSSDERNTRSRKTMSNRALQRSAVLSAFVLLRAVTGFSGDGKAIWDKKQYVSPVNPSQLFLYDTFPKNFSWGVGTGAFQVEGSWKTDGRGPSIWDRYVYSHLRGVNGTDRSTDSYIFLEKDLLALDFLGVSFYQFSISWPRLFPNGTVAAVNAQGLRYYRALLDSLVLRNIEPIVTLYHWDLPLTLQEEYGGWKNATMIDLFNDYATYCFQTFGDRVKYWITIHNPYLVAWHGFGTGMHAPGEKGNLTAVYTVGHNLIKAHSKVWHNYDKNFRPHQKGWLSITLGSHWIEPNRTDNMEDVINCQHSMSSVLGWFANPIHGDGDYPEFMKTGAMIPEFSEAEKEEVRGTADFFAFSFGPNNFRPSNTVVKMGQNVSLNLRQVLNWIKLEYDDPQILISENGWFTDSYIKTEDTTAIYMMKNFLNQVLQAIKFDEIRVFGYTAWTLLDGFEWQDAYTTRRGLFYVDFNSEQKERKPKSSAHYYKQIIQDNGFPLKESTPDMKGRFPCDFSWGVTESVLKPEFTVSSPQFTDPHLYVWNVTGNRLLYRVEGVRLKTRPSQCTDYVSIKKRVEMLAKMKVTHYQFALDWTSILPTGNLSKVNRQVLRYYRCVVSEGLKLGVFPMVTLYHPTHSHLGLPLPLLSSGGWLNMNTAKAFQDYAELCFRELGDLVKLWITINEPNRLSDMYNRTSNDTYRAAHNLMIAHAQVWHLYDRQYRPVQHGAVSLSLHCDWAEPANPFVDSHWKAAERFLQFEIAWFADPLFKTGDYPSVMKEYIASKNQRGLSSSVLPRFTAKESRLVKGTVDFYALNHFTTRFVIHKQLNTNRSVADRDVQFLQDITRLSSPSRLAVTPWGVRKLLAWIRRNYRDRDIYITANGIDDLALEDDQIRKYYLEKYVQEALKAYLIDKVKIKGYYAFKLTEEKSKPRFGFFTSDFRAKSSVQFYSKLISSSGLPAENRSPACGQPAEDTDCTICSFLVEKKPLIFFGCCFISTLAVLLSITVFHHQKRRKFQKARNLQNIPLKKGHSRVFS
Briefly: DNA synthesis (thymidine incorporation) in FGFR1c/betaKlotho-expressing BaF3 cells. The class given is cell-based. The settings on record: BaF3 cells expressing FGFR1c and betaKlotho; presence or absence of heparin. How it is done: (§1) A commonly used measurement method is a cell growth stimulating activity measurement method described in Ornitz, D. M., Xu, J., Colvin, J. S., McEwen, D. G., MacArthur, C. A., Coulier, F., Gao, G. and Goldfarb, M. (1996) Receptor specificity of the fibroblast growth factor family. J Biol Chem, 271, 15292-15297. The summary thereof is as follows. FGF used as a measurement target is added to a culture solution containing a cultured cell having an FGF receptor on the surface thereof, and the obtained mixture is cultured for a certain period of time. Thereafter, a labeled thymidine is added to the culture solution, followed by further culture for a certain period of time. By measuring the amount of the labeled thymidine incorporated into polymeric DNA during the culture, the degree of FGF to activate DNA synthesis is evaluated. (In the present invention as well, this method was adopted when the activity of FGF21 was measured in Examples 4, 5, 6, 8, 9, and 10.)
FGFR1c-expressing BaF3 cells and FGFR1c- and betaKlotho-expressing BaF3 cells were prepared as follows. In the case of FGFR1c-expressing BaF3 cells, an animal cell expression vector into which the entire-length cDNA of mouse FGFR1c had been cloned (described in Ornitz, D. M., Xu, J., Colvin, J. S., McEwen, D. G., MacArthur, C. A., Coulier, F., Gao, G. and Goldfarb, M. (1996) Receptor specificity of the fibroblast growth factor family. J Biol Chem, 271, 15292-15297.) was introduced into BaF3 cells by an electroporation method. The cells were then cultured in the presence of G418 for approximately 2 weeks, so as to obtain drug-resistant clones. Thereafter, such clones were obtained as those capable of growing as a result of FGF1 stimulation. In the case of both FGFR1c- and betaKlotho-expressing BaF3 cells, the entire-length cDNA of mouse betaKlotho was cloned into an animal cell expression vector, and it was then introduced into the FGFR1c-expressing BaF3 cells. The cells were then cultured in the presence of Puromycin and G418 for approximately 2 weeks, so as to obtain drug-resistant clones. In the case of only betaKlotho-expressing BaF3 cells, a betaKlotho-expressing vector was introduced into BaF3 cells, and Puromycin-resistant clones were then obtained. The BaF3 cells, into which the aforementioned genes had been each introduced, were maintained in an RPMI1640 medium containing 10% FBS and interleukin 3 (IL3, supplied by adding a 5% condition medium of WEHI-3 cells). For the growth stimulation experiment, the cells were washed with an RPMI1640 medium, and they were then suspended in an RPMI1640 medium containing 10% FBS, followed by inoculating the suspension on a culture plate. Thereafter, the resultant cells were used.
Immediately after inoculation, BaF3 cells that had expressed each clone and only FGFR1c were stimulated by addition of FGF21 (open bar) or PBS (filled bar) used as a control in the presence of heparin, and they were then cultured for 42 hours. Thereafter, tritium-labeled thymidine was added to the culture solution, and the culture was further continued for 6 hours. Thereafter, the amount of thymidine incorporated into the cells was measured, so as to evaluate DNA synthesis. A DNA synthesis value obtained when the cells were not stimulated with FGF21 was defined as 1, and the ratio of a DNA synthesis value obtained by stimulating with FGF21 to the aforementioned DNA synthesis value was expressed using magnification. […]
In general terms: Incorporation of labelled thymidine or its analogues reports DNA synthesis.

Assay [2] deals with FGFR4/betaKlotho-expressing BaF3 cells. Description: DNA synthesis (thymidine incorporation) in FGFR4/betaKlotho-expressing BaF3 cells. The class given is cell-based, mouse. The settings on record: BaF3 cells expressing FGFR4 and betaKlotho; presence of heparin. How it is done: as §1
FGFR4/betaKlotho-expressing BaF3 cells, sequence (Q03142 17-366 limits assumed): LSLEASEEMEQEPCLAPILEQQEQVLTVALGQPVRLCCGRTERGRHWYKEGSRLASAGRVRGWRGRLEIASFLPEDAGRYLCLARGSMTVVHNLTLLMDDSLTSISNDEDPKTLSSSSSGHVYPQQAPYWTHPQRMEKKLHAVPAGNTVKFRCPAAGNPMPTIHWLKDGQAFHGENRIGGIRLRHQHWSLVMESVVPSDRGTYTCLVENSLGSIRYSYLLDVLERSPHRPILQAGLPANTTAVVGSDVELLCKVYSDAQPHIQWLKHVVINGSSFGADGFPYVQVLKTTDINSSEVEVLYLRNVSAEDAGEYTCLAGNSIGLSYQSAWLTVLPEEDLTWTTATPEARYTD
FGFR4/betaKlotho-expressing BaF3 cells, sequence (Q99N32 whole entry, further chain): as the sequence (Q99N32 whole entry) above
(§2) Whether other receptor molecules can also act as such FGF receptors was examined. An expression vector containing each FGFR (FGFR1b, R1c, R2b, R2c, R3b, R3c, and R4) (described in Ornitz, D. M., Xu, J., Colvin, J. S., McEwen, D. G., MacArthur, C. A., Coulier, F., Gao, G. and Goldfarb, M. (1996) Receptor specificity of the fibroblast growth factor family. J Biol Chem, 271, 15292-15297.) was introduced into betaKlotho-expressing BaF3 cells, so as to obtain clones that were resistant to Puromycin and G418, thereby obtaining FGFR/betaKlotho-expressing cells. Such cells were stimulated with FGF21, and the amount of DNA synthesized was measured.
The activity of FGF21 to stimulate the DNA synthesis of BaF3 cells that had expressed each FGFR (FGFR1c, R2c, F3c, and R4) as well as betaKlotho was compared with the activity of FGF19, which was evolutionally relative to FGF21. […] The cells were stimulated with FGF21, FGF19, and FGF1 in the presence of heparin, while changing the amounts of FGF21, FGF19, and FGF1, as shown in the figure, and the amount of DNA synthesized was then measured.

The target of assay [3] is T2, FGFR2c/betaKlotho-expressing cells (Mus musculus, UniProt P21803+Q99N32).
T2 construct: the entire-length cDNA of mouse betaKlotho was cloned into an animal cell expression vector; expressed in transfected cells; host or cells: BaF3 (mouse pro-B) cells
T2 sequence (P21803 22-821): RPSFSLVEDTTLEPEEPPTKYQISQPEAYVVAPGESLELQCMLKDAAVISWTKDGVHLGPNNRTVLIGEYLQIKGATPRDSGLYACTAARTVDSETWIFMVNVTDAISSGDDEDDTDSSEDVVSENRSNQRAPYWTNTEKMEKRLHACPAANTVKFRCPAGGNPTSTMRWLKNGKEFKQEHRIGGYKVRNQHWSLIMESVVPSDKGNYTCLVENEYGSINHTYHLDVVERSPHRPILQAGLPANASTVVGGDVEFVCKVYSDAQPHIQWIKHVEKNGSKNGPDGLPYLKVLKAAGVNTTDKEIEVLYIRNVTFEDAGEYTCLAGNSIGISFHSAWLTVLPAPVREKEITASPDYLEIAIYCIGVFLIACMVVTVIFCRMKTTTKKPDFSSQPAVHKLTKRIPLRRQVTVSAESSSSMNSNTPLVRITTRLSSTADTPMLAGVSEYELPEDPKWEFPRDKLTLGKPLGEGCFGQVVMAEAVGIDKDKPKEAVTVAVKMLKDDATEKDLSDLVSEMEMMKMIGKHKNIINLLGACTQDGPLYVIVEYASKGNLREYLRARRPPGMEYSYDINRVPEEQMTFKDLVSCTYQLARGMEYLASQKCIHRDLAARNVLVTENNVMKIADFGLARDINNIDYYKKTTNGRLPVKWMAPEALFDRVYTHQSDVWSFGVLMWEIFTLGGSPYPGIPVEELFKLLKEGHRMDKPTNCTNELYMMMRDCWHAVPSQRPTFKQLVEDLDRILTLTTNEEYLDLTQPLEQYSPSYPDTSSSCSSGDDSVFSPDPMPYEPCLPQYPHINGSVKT
T2 sequence (Q99N32 whole entry): as the sequence (Q99N32 whole entry) above
Briefly: Phosphorylation of FRS2 and MAPK (Western blotting) in FGFR2c/betaKlotho-expressing cells. Particulars: presence of heparin; 10 minutes stimulation. The class given is cell-based. How it is done: Each FGFR/betaKlotho-expressing cells obtained in Example 6 were stimulated with FGF, and the activated state (phosphorylated state) of a signaling molecule FRS2 (fibroblast growth factor receptor substrate 2) located downstream of FGFR, and that of MAPK (mitogen activated protein kinase; alias: ERK (extracellular signal-regulated kinase; in general, there are two types of ERKs, namely, ERK1 with a molecular weight of 44 kDa and ERK2 with a molecular weight of 42 kDa)), were analyzed. Different types of cells were stimulated with each FGF in the presence of heparin for 10 minutes, and a cell lysate was then prepared. Thereafter, the phosphorylated degree was evaluated by measuring it by a Western blotting method using a commercially available anti-phosphorylation FRS2 antibody or an anti-phosphorylation MAPK antibody.
On the technique in general: In western blotting, separated proteins are transferred to a membrane and probed.

Assay [4] relates to betaKlotho/FGFR-expressing cells (FGFR1b, R1c, R2b, R2c, R3b, R3c, R4). Description: Thymidine incorporation in betaKlotho/FGFR-expressing BaF3 cells with or without heparin. In kind it is cell-based, mouse. Particulars: presence versus absence of heparin. The procedure: An expression vector of such FGF receptor (FGFR1b, R1c, R2b, F2c, R3b, R3c, and R4) was introduced into BaF3 cells expressing betaKlotho, and each type of betaKlotho/FGFR-expressing cells were stimulated with FGF21 and FGF1 in the presence or absence of heparin, so that the ability of the cells to incorporate thymidine therein was measured. As a result, it was shown that both FGFR1c- and FGFR3c-expressing cells react with FGF21.
as §2

Take “FGF1: conventional FGF used as a control”: the “DNA synthesis (thymidine incorporated into the cells)” value in assay [1] and in assay [2] was “reacts with all of the receptors” each time. Besides, the “phosphorylation of FRS2 and MAPK” value in assay [3] is on record as “significantly increase the phosphorylation”. In addition, in assay [4], the “influence of heparin on stimulus transmission activity (thymidine incorporation)” value is recorded as “sharply increased in the presence of heparin”.

B1: FGF21: fibroblast growth factor 21; mouse-derived protein used in Examples 1-7 and 10-13 (protein)
chain: AYPIPDSSPLLQFGGQVRQRYLYTDDDQDTEAHLEIREDGTVVGAAHRSPESLLELKALKPGVIQILGVKASRFLCQQPDGALYGSPHFDPEACSFRELLLEDGYNVYQSEAHGLPLRLPQKDSPNQDATSWGPVRFLPMPGLLHEPQDQAGFLPPEPPDVGSSDPLSMVEPLQGRSPSYAS
In the case of B1, the “DNA synthesis (thymidine incorporated into the cells)” value is “reacted with FGF21; also recorded: dose-dependently stimulate DNA synthesis; also recorded: activates; also recorded: able to act on FGFR1c-expressing cells” in assay [1]; “reacts only with FGFR1c and FGFR3c” in assay [2]. Besides, the “phosphorylation of FRS2 and MAPK” value in assay [3] is “only in FGFR1c/betaKlotho-expressing cells and FGFR3c/betaKlotho-expressing cells”. Further, in assay [4], the “influence of heparin on stimulus transmission activity (thymidine incorporation)” value is “does not significantly influence”.
